{
  "source": "paper PMC3001473",
  "about": "(PLoS ONE, 2010)",
  "binders": {"B1": {"name": "wild-type human interferon-gamma (ligand, UniProt P01579 24-166, looked up)", "chain": "QDPYVKEAENLKKYFNAGHSDVADNGTLFLGILKNWKEESDRKIMQSQIVSFYFKLFKNFKDDQSIQKSVETIKEDMNVKFFNSNKKKRDDFEKLTNYSVTDLNVQRKAIHELIQVMAELSPAAKTGKRKRSQMLFRGRRASQ", "notes": "also called IFNγ; IFNγwt"}},
  "target": "LcrV (V antigen) of Yersinia pestis (Yersinia pestis, UniProt P0C7U7 1-326)",
  "sequence (P0C7U7 whole entry)": "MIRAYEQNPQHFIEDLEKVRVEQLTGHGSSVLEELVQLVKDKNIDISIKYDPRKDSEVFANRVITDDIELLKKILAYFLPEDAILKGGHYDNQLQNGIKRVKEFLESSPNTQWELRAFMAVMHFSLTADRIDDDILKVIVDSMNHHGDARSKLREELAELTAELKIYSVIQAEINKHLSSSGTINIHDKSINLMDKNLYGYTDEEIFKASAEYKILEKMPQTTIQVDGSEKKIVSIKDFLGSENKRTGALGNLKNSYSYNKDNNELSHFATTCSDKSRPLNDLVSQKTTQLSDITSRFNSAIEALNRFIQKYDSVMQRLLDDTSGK",
  "assay": "SPR; Biacore 3000; […]; HBS-P pH 7.4; […]",
  "details": "both partners purified",
  "data": [
    {"binder": "B1", "values": [
      {"measurement": "Kd", "value": 32, "unit": "nM"}
    ]}
  ]
}
